In this experiment the target is T1, His-tagged 2Ig-B7H3 (R&D Systems) (UniProt Q5ZPR3-2 29-245, limits assumed).
T1 construct: the 2Ig form is an isoform of it; also called 2Ig-B7H3(His); xHis 2Ig (when captured by mouse anti-poly His antibody); not shown: His tag
T1 sequence (looked up): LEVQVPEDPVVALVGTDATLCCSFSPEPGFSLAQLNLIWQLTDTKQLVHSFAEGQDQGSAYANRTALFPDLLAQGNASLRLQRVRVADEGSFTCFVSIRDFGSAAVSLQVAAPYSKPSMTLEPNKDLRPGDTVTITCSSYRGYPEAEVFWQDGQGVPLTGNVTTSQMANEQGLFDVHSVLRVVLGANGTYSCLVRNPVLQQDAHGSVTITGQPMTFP
The experiment is described as follows: ELISA, 5 µg/ml 2Ig-B7H3(His) captured by mouse anti-poly His antibody, streptavidin-HRP. How it is done: To further investigate mu-anti-TES binding to 4Ig-B7H3, ELISA crosslinking experiments with a His-tagged 2Ig-B7H3 (R&D Systems) were performed. 5 µg/ml of a capture antibody, mouse anti-poly His antibody, was coated on a 96-well plate as a control, a no coat well (naked well) was also used. The wells with the capture antibody were then blocked with HBSS+1% BSA. 5 µg/ml of 2Ig-B7H3(His) or 4Ig-B7H3(His) was introduced into naked wells or capture antibody-coated wells. As a control, 5 µg/ml of 2Ig-B7H3(Fc) was introduced into naked wells. The plate was then blocked again with HBSS+1% BSA. Then […] of biotinylated mu-anti-TES7, BLA8, PA20 or STO5 (another anti-B7H3 antibody that only recognizes the 4Ig form of B7H3) was introduced into the plate. The bound biotinylated antibodies were then detected with streptavidin-HRP using standard protocols.

The source of these data is patent US7718774 (MacroGenics, dated 2010).

B1: mu-anti-TES7 (antibody, V domains shown)
VH: QVQLQQSGPELVKPGTSVRISCKASGYTFTSYYIHWVKQRPGQGLEWIGWIYPGNVNTKYNENFKGKATLTADKSSSTAYMQLSSLTSEDSAVYFCARGGYFFDQWGQGTTLTVSS
VL: DVQITQSPSYLAASPGETITVNCRASESISKYLAWYQEKPGKTNKLLIYSGSTLQSGIPSRFSGSGSGSDFTLTISSLEPEDFAMYYCHQHNEFPLTFGAGTKLELK
notes: Mouse monoclonal IgG purified from hybridoma supernatant on protein G; also called mouse anti-huTES7 antibody; murine anti-TES7 antibody
As for B1, the binding result was “no binding”.
